The values below come from article PMC9352930 (2022).

By koff is commonly meant a measure of how fast the partners let go of each other. What is called Kd is the free concentration of one partner at which half of the binding sites on the other are occupied at equilibrium, for simple one-to-one binding. Low readings indicate higher affinity, high ones lower affinity.

The target of test [1] is T1, C3b (proteolytic fragment of complement component C3) (human, UniProt P01024 749-1663; P01024 749-1663). As to the kind of experiment: SPR. On the technique in general: Surface plasmon resonance follows binding to a sensor surface in real time, without labels.
Test [2] deals with C3 methylamine (human, treated with methylamine). As to the kind of experiment: SPR.
The target of test [3] is native complement component C3 (human). The test can be described thus: SPR.
Test [4] deals with T1, C3b (proteolytic fragment of complement …). As to the kind of experiment: BLI. (In BLI a coated tip is dipped into the sample, and binding shifts an interference pattern.)
The target of test [5] is iC3b (human). The test can be described thus: BLI.
In test [6] the target is T1, C3b (proteolytic fragment of complement …). As to the kind of experiment: BLI. This is another data set of the same source.
The target of test [7] is iC3b (human). As to the kind of experiment: BLI. This is another data set of the same source.

T1 sequence (P01024 23-667, chain 1 of 2): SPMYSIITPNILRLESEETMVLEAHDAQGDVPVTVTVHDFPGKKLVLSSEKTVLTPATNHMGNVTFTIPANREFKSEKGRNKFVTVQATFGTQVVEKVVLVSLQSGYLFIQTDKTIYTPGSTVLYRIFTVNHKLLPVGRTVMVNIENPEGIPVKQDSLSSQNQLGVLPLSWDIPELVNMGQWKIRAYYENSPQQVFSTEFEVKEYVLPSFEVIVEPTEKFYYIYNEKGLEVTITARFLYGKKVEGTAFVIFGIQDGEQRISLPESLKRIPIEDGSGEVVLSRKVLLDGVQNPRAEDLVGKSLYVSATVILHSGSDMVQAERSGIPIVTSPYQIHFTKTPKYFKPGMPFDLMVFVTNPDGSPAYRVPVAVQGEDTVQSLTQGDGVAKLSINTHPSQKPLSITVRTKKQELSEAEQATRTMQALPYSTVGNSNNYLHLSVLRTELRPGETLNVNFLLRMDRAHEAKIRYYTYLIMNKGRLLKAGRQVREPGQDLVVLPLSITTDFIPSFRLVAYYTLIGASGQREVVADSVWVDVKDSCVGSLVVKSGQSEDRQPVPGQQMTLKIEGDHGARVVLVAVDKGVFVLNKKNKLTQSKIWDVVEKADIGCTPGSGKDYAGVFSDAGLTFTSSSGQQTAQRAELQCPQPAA
T1 sequence (P01024 749-1663, chain 2 of 2): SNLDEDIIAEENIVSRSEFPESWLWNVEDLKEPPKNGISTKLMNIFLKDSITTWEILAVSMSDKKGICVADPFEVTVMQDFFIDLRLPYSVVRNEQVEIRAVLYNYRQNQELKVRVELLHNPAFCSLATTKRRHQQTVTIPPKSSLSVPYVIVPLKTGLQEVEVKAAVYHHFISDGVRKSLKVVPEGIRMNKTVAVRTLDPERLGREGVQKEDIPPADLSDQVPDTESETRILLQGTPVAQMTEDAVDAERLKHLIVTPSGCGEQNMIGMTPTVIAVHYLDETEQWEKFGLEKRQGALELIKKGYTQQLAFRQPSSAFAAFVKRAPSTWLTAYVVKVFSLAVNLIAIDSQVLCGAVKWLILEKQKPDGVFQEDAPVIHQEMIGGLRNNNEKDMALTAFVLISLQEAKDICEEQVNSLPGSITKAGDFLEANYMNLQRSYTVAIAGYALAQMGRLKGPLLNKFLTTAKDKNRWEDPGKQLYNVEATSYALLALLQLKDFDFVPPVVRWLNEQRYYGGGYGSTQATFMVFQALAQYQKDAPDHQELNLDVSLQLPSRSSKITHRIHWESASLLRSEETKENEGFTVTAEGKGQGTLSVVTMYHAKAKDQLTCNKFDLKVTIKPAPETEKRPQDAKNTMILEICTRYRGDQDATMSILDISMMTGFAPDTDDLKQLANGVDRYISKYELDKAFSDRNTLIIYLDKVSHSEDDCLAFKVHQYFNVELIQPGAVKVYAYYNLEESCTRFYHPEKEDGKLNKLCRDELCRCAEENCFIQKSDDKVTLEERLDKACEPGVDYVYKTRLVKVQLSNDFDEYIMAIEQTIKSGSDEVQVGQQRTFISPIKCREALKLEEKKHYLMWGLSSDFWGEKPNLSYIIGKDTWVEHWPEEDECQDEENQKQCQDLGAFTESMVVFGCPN
Chain of iC3b (human) (chain, as listed by the source, chain 1 of 3): as the sequence (P01024 23-667, chain 1 of 2) above
Chain of iC3b (human) (chain, as listed by the source, chain 2 of 3): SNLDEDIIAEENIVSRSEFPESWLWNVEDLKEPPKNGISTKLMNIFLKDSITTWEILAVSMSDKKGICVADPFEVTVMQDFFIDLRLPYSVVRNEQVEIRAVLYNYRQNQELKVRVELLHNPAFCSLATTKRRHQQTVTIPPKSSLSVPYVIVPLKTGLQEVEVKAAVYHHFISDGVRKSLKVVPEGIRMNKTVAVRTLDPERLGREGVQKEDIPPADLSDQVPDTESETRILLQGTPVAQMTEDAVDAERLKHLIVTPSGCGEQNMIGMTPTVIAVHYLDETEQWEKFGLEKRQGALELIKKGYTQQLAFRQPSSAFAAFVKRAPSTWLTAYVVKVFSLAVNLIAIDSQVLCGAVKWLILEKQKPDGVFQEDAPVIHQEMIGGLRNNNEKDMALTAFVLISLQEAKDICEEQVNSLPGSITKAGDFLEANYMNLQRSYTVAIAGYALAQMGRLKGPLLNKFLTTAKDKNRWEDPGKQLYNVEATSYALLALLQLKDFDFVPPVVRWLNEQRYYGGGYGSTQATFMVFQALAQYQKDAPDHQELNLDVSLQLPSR
Chain of iC3b (human) (chain, as listed by the source, chain 3 of 3): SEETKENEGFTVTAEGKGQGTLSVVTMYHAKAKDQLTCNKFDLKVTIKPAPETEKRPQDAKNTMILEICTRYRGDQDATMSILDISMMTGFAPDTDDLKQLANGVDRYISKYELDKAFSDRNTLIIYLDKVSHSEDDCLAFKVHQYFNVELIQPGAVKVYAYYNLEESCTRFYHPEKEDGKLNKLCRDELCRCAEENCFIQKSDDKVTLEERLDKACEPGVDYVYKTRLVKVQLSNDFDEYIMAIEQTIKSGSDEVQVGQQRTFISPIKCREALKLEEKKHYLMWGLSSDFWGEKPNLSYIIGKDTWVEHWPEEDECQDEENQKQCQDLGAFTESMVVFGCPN
Chain of C3 methylamine (human, treated with methylamine) (chain, as listed by the source, chain 1 of 2): as the sequence (P01024 23-667, chain 1 of 2) above
Chain of C3 methylamine (human, treated with methylamine) (chain, as listed by the source, chain 2 of 2): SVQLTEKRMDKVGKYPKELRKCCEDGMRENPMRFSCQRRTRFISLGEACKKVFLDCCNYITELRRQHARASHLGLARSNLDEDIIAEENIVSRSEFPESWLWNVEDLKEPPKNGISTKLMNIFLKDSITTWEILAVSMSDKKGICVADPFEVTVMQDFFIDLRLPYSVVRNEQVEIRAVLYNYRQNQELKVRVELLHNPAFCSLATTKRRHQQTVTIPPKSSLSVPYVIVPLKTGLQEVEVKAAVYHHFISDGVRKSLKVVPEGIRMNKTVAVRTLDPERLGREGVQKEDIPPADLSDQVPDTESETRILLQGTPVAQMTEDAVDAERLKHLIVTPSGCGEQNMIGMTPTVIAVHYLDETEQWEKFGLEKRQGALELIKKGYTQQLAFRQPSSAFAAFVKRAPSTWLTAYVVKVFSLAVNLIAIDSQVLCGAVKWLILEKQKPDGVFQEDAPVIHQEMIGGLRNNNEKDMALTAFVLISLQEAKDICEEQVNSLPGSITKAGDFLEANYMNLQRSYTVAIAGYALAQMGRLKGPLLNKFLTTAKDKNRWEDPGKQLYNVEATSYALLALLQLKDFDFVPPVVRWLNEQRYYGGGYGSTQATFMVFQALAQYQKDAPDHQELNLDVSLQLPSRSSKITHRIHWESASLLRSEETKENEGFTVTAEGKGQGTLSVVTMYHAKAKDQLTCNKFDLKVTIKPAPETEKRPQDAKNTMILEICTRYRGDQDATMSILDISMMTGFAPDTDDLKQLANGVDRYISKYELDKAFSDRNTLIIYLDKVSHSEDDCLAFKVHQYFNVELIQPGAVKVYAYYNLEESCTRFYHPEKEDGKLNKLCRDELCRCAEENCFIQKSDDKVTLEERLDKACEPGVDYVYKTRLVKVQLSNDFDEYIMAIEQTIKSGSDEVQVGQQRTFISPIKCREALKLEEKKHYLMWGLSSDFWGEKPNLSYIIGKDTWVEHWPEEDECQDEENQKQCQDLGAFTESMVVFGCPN
Chain of native complement component C3 (human) (chain, as listed by the source, chain 1 of 2): as the sequence (P01024 23-667, chain 1 of 2) above
Chain of native complement component C3 (human) (chain, as listed by the source, chain 2 of 2): as the sequence (chain, as listed by the source, chain 2 of 2) above

B1: avi-tagged, biotinylated EWE nanobody (VHH)
VHH: QVQLVETGGGLVQAGGSLRLSCAASGSIFSINAMGWFRQAPGKEREFVATINRSGGRTYYADSVKGRFTISRDNGKNMVYLQMHSLKPEDTAIYYCAAGTGWSPQTDNEYNYWGQGTQVTVSS
modifications: biotin
With B1, the koff amounted to 8.6e-05 s⁻¹ in test [1], 7.6e-05 s⁻¹ in test [2] and 0.000105 s⁻¹ in test [3].

B2: EWE-hC3Nb1 nanobody, bacterially expressed (VHH)
VHH: B1 VHH
As to B2, the dissociation rate constant (koff) came out at 0.00037 s⁻¹ in test [4] and 0.00026 s⁻¹ in test [5].

B3: EWEnH fusion protein (EWE fused to FH CCP2-4) (other)
chain: EWEQVQLVETGGGLVQAGGSLRLSCAASGSIFSINAMGWFRQAPGKEREFVATINRSGGRTYYADSVKGRFTISRDNGKNMVYLQMHSLKPEDTAIYYCAAGTGWSPQTDNEYNYWGQGTQVTVSSRPCGHPGDTPFGTFTLTGGNVFEYGVKAVYTCNEGYQLLGEINYRECDTDGWTNDIPICEVVKCLPVTAPENGKIVSSAMEPDREYHFGQAVRFVCNSGYKIEGDEEMHCSDDGFWSKEKPKCVEISCKSPDVINGSPISQKIIYKENERFQYKCNMGYEYSERGDAVCTESGWRPLPSCEE
Consider B3, for which the Kd in test [6] came out at 7.1 nM; in test [7], 8.9 nM.
